Laboratory results taken from publication PMC5763148.

T1: murine CCL17 (mCCL17, TARC) (Mus musculus, UniProt Q9WUZ6 24-93)
T1 sequence: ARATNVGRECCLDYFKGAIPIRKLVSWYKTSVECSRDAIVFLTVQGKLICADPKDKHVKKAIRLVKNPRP


Key:
Assay in all cases: SPR
[1] = target: human CCL17 (hCCL17, TARC) (Homo sapiens, UniProt Q92583 24-94)
[2] = target: T1, murine CCL17 (mCCL17, TARC)
[3] = target: T1, murine CCL17 (mCCL17, TARC); remark: listed apart in the source

Chain of human CCL17 (hCCL17, TARC) (Q92583 24-94): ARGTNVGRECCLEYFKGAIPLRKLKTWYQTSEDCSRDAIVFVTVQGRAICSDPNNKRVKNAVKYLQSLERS

| Binder | binding result [1] | Kd [2] | binding result [3] |
| --- | --- | --- | --- |
| GGGUCGUCGCGGGUUGGCUCGUAGAUCGGGCCGGUACAGACGACCC (structured_RNA, 2'-fluoro pyrimidines) [MF11.46] | no binding | 0.9 ± 0.1 nM | – |
| GGGAGGACGAUGCGGGAGCAGCAUUUGUGGUUUCCCGAUCGCUUCCC (structured_RNA, 2'-fluoro pyrimidines) [MF35.47] | no binding | 7.5 ± 1.5 nM | – |
| GGGGGCGUGUAUGCCAGACCUGCCGAUGUCCUUAAGGUCGACGCUGU (structured_RNA, 2'-fluoro pyrimidines) [control aptamer (scrambled MF35.47)] | – | – | no binding |
